Laboratory results taken from patent publication US20200087364A1 (IMMATICS BIOTECHNOLOGIES, published 2020).

These binders were tested against T1, HLA-A*01:01 (human) (assay: UV-ligand exchange, anti-b2m ELISA).
T1 construct: MHC class I monomer first loaded with a UV-sensitive peptide (not identified) that is cleaved by UV irradiation and exchanged for the tested peptide; captured on streptavidin plates, detected with anti-β2m; also called peptide-receptive MHC molecules
From the text: Candidate peptides for T cell based therapies according to the present invention were further tested for their MHC binding capacity (affinity). The individual peptide-MHC complexes were produced by UV-ligand exchange, where a UV-sensitive peptide is cleaved upon UV-irradiation and exchanged with the peptide of interest as analyzed. Only peptide candidates that can effectively bind and stabilize the peptide-receptive MHC molecules prevent dissociation of the MHC complexes. To determine the yield of the exchange reaction, an ELISA was performed based on the detection of the light chain (β2m) of stabilized MHC complexes. The assay was performed as generally described in Rodenko et al. (Rodenko et al., 2006)
96 well MAXISorp plates (NUNC) were coated over night with 2 ug/ml streptavidin in PBS at room temperature, washed 4× and blocked for 1 h at 37° C. in 2% BSA containing blocking buffer. Refolded HLA-A*02:01/MLA-001 monomers served as standards, covering the range of 15-500 ng/ml. Peptide-MHC monomers of the UV-exchange reaction were diluted 100-fold in blocking buffer. Samples were incubated for 1 h at 37° C., washed four times, incubated with 2 ug/ml HRP conjugated anti-β2m for 1 h at 37° C., washed again and detected with TMB solution that is stopped with […]. Absorption was measured at 450 nm.

Binder	peptide exchange yield [%]
LADTDLGMTF	20 to 50
VSSTVHNLY	> 75
KLAGTVFQY	20 to 50
NSDESADSEPHKY	> 75
ASWAVLCYY	50 to 75
RSDPVSLRY	> 75
GLEYEAPKLY	20 to 50
AVSSGLFFY	20 to 50
VQPGETYTY	50 to 75
VQIAKGMNY	50 to 75
LVDGKWQEF	20 to 50
TSEVEGLAFVSY	50 to 75
YHRICELLSDY	> 75
QSTTGVSHY	50 to 75
FSEPFHLIV	50 to 75
TQKSVQVLAY	20 to 50
RAVQPGETY	50 to 75
FRGVFVHRY	20 to 50
VSVYNSYPY	20 to 50
SSTDFTFASW	10 to 20
SVTDLIGGKW	20 to 50
TQPELSSRY	20 to 50
ITDFGLAKL	20 to 50
AQISDTGRY	20 to 50
DIPDYLLQY	50 to 75
TQRTSFQFY	20 to 50
TVDNANILL	20 to 50
KTIQEVAGY	20 to 50
FTRAFDQLRM	50 to 75
HTDLESPSAVY	50 to 75
